Measurements reported in article PMC9482650, “Quantitative fragmentomics allow affinity mapping of interactomes” (Nature Communications, 2022).

How the values were obtained:
Experiment in all cases: holdup assay
Set-up in all cases: key: below the threshold = too weak to quantify, mostly under pKd 3.1 to 4
APBA2_1, Q99767 = target: T1, APBA2_1, Q99767
T1 sequence (Q99767 563-664, limits assumed, looked up): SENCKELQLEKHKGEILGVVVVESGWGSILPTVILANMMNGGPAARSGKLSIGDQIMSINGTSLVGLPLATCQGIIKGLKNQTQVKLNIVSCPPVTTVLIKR

CASK, O14936 = target: CASK, O14936
Chain of CASK, O14936 (O14936 487-570): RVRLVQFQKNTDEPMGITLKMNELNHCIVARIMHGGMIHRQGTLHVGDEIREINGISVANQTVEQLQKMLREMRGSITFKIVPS

DFNB31_1, Q9P202 = target: T2, DFNB31_1, Q9P202
T2 sequence (Q9P202 135-233, limits assumed, looked up): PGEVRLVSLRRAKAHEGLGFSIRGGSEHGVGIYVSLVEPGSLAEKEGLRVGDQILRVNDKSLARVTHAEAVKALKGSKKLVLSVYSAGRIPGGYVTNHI

DFNB31_3, Q9P202 = target: T3, DFNB31_3, Q9P202
T3 sequence (Q9P202 811-907, limits assumed, looked up): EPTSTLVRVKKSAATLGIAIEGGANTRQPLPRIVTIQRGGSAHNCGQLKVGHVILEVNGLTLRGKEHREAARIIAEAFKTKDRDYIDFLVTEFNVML

DLG1_1, Q12959 = target: DLG1_1, Q12959
DLG2_2, Q15700 = target: DLG2_2, Q15700
Chain of DLG2_2, Q15700 (Q15700 189-283): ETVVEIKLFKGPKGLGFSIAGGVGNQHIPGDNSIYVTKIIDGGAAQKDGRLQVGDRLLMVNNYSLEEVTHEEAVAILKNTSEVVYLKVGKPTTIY

DLG3_1, Q92796 = target: T4, DLG3_1, Q92796
T4 sequence (Q92796 125-227, limits assumed, looked up): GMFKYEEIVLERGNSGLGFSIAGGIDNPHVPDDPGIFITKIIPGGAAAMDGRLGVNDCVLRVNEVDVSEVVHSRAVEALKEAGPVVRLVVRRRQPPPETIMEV

FRMPD2_3, Q68DX3 = target: FRMPD2_3, Q68DX3
Chain of FRMPD2_3, Q68DX3 (Q68DX3 1073-1166): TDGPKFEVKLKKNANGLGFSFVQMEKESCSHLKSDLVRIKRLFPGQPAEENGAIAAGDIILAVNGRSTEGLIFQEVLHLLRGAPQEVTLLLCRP

GOPC, Q9HD26 = target: GOPC, Q9HD26
GORASP1, Q9BQQ3 = target: GORASP1, Q9BQQ3
Chain of GORASP1, Q9BQQ3 (Q9BQQ3 1-208): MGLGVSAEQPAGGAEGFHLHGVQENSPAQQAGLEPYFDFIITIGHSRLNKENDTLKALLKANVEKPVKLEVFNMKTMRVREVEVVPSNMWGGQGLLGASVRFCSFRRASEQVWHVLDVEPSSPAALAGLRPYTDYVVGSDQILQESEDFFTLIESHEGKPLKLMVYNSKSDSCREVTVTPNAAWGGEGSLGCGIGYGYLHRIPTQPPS

HTRA2, O43464 = target: HTRA2, O43464
Chain of HTRA2, O43464 (O43464 355-458): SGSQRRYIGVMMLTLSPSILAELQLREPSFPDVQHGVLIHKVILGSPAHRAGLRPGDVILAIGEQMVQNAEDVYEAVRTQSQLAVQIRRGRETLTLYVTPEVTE

Inadl_5, Q8NI35 = target: Inadl_5, Q8NI35
Chain of Inadl_5, Q8NI35 (Q8NI35 673-780): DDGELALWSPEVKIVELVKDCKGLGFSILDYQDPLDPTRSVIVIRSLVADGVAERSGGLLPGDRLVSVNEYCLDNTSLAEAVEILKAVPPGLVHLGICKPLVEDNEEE

Inadl_8, Q8NI35 = target: Inadl_8, Q8NI35
Chain of Inadl_8, Q8NI35 (Q8NI35 1425-1530): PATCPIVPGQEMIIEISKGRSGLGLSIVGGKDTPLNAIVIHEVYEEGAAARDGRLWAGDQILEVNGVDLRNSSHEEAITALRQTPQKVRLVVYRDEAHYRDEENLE

Inadl_9, Q8NI35 = target: Inadl_9, Q8NI35
Chain of Inadl_9, Q8NI35 (Q8NI35 1530-1615): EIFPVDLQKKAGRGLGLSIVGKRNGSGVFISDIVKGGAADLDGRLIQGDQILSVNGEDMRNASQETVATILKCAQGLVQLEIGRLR

LDB3, O75112 = target: LDB3, O75112
Chain of LDB3, O75112 (O75112 1-94): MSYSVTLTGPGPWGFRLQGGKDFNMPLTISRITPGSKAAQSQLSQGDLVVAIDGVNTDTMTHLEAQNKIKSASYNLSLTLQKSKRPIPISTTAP

LIN7C, Q9NUP9 = target: T5, LIN7C, Q9NUP9
T5 sequence (Q9NUP9 88-185, limits assumed, looked up): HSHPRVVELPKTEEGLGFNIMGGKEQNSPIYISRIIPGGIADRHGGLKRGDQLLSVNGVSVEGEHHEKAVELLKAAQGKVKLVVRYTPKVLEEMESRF

LNX2_2, Q8N448 = target: T6, LNX2_2, Q8N448
T6 sequence (Q8N448 334-432, limits assumed, looked up): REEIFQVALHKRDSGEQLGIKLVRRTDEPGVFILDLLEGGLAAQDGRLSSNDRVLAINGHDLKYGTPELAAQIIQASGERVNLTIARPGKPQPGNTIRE

MAGI1_2, Q96QZ7 = target: MAGI1_2, Q96QZ7
Chain of MAGI1_2, Q96QZ7 (Q96QZ7 456-580): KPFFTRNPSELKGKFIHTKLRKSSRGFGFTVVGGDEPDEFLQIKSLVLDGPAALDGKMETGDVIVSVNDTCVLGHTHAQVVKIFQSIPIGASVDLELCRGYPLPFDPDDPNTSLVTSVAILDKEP

MAGI2_2, Q86UL8 = target: MAGI2_2, Q86UL8
Chain of MAGI2_2, Q86UL8 (Q86UL8 410-522): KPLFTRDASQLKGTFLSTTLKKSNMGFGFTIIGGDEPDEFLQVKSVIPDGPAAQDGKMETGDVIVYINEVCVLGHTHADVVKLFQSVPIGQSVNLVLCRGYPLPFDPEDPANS

MAGI2_6, Q86UL8 = target: MAGI2_6, Q86UL8
Chain of MAGI2_6, Q86UL8 (Q86UL8 1141-1229): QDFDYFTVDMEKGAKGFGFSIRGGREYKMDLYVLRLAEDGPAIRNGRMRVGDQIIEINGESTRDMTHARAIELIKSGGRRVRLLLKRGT

MAST1, Q9Y2H9 = target: MAST1, Q9Y2H9
Chain of MAST1, Q9Y2H9 (Q9Y2H9 962-1065): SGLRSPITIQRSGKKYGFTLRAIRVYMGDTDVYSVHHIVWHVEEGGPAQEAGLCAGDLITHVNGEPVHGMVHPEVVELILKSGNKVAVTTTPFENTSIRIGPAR

MPP2, Q14168 = target: T7, MPP2, Q14168
T7 sequence (Q14168 180-250, limits assumed, looked up): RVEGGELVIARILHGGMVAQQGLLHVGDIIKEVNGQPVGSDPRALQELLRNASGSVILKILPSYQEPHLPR

MPP6, Q9NZW5 = target: T8, MPP6, Q9NZW5
T8 sequence (Q9NZW5 125-219, limits assumed, looked up): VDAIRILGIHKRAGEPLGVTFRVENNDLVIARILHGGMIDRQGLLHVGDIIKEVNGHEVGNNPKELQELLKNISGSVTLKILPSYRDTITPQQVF

NOS1, P29475 = target: NOS1, P29475
Chain of NOS1, P29475 (P29475 9-101): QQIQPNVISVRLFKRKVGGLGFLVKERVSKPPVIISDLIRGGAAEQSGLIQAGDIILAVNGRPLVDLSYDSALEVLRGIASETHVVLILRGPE

PICK1, Q9NRD5 = target: PICK1, Q9NRD5
Chain of PICK1, Q9NRD5 (Q9NRD5 17-115): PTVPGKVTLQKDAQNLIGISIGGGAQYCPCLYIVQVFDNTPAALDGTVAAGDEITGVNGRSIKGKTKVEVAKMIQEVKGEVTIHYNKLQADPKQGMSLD

PTPN13_1, Q12923 = target: T9, PTPN13_1, Q12923
T9 sequence (Q12923 1088-1188, limits assumed, looked up): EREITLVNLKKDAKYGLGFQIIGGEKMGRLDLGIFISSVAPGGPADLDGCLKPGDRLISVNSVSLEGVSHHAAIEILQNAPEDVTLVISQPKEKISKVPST

PTPN3, P26045 = target: PTPN3, P26045
Chain of PTPN3, P26045 (P26045 505-587): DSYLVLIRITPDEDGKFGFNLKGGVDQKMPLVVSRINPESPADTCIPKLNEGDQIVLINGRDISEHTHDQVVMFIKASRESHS

SNTA1, Q13424 = target: T10, SNTA1, Q13424
T10 sequence (Q13424 82-180, limits assumed, looked up): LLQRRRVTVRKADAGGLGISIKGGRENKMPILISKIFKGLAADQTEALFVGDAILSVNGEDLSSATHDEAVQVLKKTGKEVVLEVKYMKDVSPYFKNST

TJP1_3, Q07157 = target: TJP1_3, Q07157
Chain of TJP1_3, Q07157 (Q07157 416-512): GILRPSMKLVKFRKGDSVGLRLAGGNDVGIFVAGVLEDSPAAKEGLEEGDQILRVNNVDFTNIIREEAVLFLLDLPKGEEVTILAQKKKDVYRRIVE

[1] = plain residues with an end cap or a label only (N-terminal biotin on a linker: ado-ado)
[2] = plain residues with an end cap or a label only (N-terminal biotin on a linker: ttds)

Binder: PDSYHRRDFW [U2AF2, P26368]
- pKd (APBA2_1, Q99767; [1]): below the threshold
- pKd (CASK, O14936; [1]): below the threshold
- pKd (DFNB31_1, Q9P202; [1]): 3.57
- pKd (DFNB31_3, Q9P202; [1]): below the threshold
- pKd (DLG1_1, Q12959; [1]): below the threshold
- pKd (DLG2_2, Q15700; [1]): below the threshold
- pKd (DLG3_1, Q92796; [1]): below the threshold
- pKd (FRMPD2_3, Q68DX3; [1]): below the threshold
- pKd (GOPC, Q9HD26; [1]): 3.6
- pKd (GORASP1, Q9BQQ3; [1]): 3.52
- pKd (HTRA2, O43464; [1]): below the threshold
- pKd (Inadl_5, Q8NI35; [1]): below the threshold
- pKd (Inadl_8, Q8NI35; [1]): 3.48
- pKd (Inadl_9, Q8NI35; [1]): below the threshold
- pKd (LDB3, O75112; [1]): below the threshold
- pKd (LIN7C, Q9NUP9; [1]): below the threshold
- pKd (LNX2_2, Q8N448; [1]): below the threshold
- pKd (MAGI1_2, Q96QZ7; [1]): below the threshold
- pKd (MAGI2_2, Q86UL8; [1]): below the threshold
- pKd (MAGI2_6, Q86UL8; [1]): below the threshold
- pKd (MAST1, Q9Y2H9; [1]): 3.49
- pKd (MPP2, Q14168; [1]): 3.69
- pKd (MPP6, Q9NZW5; [1]): below the threshold
- pKd (NOS1, P29475; [1]): below the threshold
- pKd (PICK1, Q9NRD5; [1]): 4.17
- pKd (PTPN13_1, Q12923; [1]): below the threshold
- pKd (PTPN3, P26045; [1]): below the threshold
- pKd (SNTA1, Q13424; [1]): below the threshold
- pKd (TJP1_3, Q07157; [1]): below the threshold

Binder: NPDALPETLV [ARHGAP6, O43182]
- pKd (APBA2_1, Q99767; [2]): below the threshold
- pKd (CASK, O14936; [2]): below the threshold
- pKd (DFNB31_1, Q9P202; [2]): 4.1
- pKd (DFNB31_3, Q9P202; [2]): 4.1
- pKd (DLG1_1, Q12959; [2]): 4.39
- pKd (DLG2_2, Q15700; [2]): 4.23
- pKd (DLG3_1, Q92796; [2]): below the threshold
- pKd (FRMPD2_3, Q68DX3; [2]): below the threshold
- pKd (GOPC, Q9HD26; [2]): 4.14
- pKd (GORASP1, Q9BQQ3; [2]): below the threshold
- pKd (HTRA2, O43464; [2]): below the threshold
- pKd (Inadl_5, Q8NI35; [2]): below the threshold
- pKd (Inadl_8, Q8NI35; [2]): below the threshold
- pKd (Inadl_9, Q8NI35; [2]): 3.98
- pKd (LDB3, O75112; [2]): below the threshold
- pKd (LIN7C, Q9NUP9; [2]): 4.31
- pKd (LNX2_2, Q8N448; [2]): 4.66
- pKd (MAGI1_2, Q96QZ7; [2]): below the threshold
- pKd (MAGI2_2, Q86UL8; [2]): 4.1
- pKd (MAGI2_6, Q86UL8; [2]): 4.31
- pKd (MAST1, Q9Y2H9; [2]): 4.38
- pKd (MPP2, Q14168; [2]): below the threshold
- pKd (MPP6, Q9NZW5; [2]): below the threshold
- pKd (NOS1, P29475; [2]): 3.92
- pKd (PICK1, Q9NRD5; [2]): below the threshold
- pKd (PTPN13_1, Q12923; [2]): below the threshold
- pKd (PTPN3, P26045; [2]): 4.44
- pKd (SNTA1, Q13424; [2]): 5.05
- pKd (TJP1_3, Q07157; [2]): below the threshold
